Reference: the supplement of paper PMC6757056
± gives the standard deviation of the averaged measurements.

B1: library; a variant is named by its letters at N, in order (parent)
chain: GCUGUCACCGGUGCUUGGUACGUUAUAUUCAGCCGGUCUGAUGAGUCUNNNNNNAGACGAAACAGC

How the values were obtained:
(6R,S)-folinic acid [1] = variants of: B1; experiment: FACS-Seq fitted mean relative fluorescence mCherry/BFP without ligand (log10 relative fluorescence); HEK293T overexpressing SLC46A1; higher = higher reporter protein expression; details: without (6R,S)-folinic acid; ligand present: no
Method: (§1)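 Hammerhead (sTRSV) ribozyme switch libraries with a ligand aptamer grafted on stem I and a randomized N4-6 loop II, cloned into the 3' UTR of mCherry and transiently transfected into HEK293T cells; RNA-Seq 72 h post transfection with ligand added 1 h before transfection; RNA read count / plasmid DNA read count normalized to the non-cleaving sTRSVctl (x100), log10; sequences with >100 DNA reads. FACS-Seq: lentiviral library sorted into 6 bins after 48 h ligand, log-normal fit mean of mCherry/BFP scaled to controls. Printed sequences are partial switch sequences.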

(6R,S)-folinic acid [2] = variants of: B1; experiment: normalized RNA/DNA level without ligand (relative to sTRSVctl = 100) (log10 (% of sTRSVctl)); HEK293T overexpressing SLC46A1; higher = less ribozyme self-cleavage, higher mRNA level; details: without (6R,S)-folinic acid; ligand present: no
Method: as §1

(6R,S)-folinic acid [3] = variants of: B1; experiment: FACS-Seq fitted mean relative fluorescence mCherry/BFP with ligand (log10 relative fluorescence); HEK293T overexpressing SLC46A1; ligand concentration (+) FACS-Seq: 6 mM; higher = higher reporter protein expression; details: with (6R,S)-folinic acid; ligand present: yes
Method: as §1

(6R,S)-folinic acid [4] = variants of: B1; experiment: normalized RNA/DNA level with ligand (relative to sTRSVctl = 100) (log10 (% of sTRSVctl)); HEK293T overexpressing SLC46A1; ligand concentration (+) RNA-Seq: 6 mM; higher = less ribozyme self-cleavage, higher mRNA level; details: with (6R,S)-folinic acid; ligand present: yes
Method: as §1

Row | Variant | FACS-Seq fitted mean (log10) ((6R,S)-folinic acid [1]) | normalized RNA/DNA level without ligand (log10) ((6R,S)-folinic acid [2]) | FACS-Seq fitted mean (log10) ((6R,S)-folinic acid [3]) | normalized RNA/DNA level with ligand (log10) ((6R,S)-folinic acid [4])
1 | UCGGUG | -0.084 ± 0.14 | 1.817 ± 0.0011 | 0.096 ± 0.055 | 2 ± 0.03
2 | GGAAAC | 0.359 ± 0.026 | 2.021 ± 0.0084 | 0.243 ± 0.22 | 2.0107 ± 0.00078
3 | UAUUAG | -0.162 ± 0.24 | 1.781 ± 0.0025 | 0.0465 ± 0.094 | 1.98 ± 0.054
4 | CAGUUC | -0.0369 ± 0.035 | 2.027 ± 0.017 | -0.16 ± 0.081 | 1.983 ± 0.019
5 | UAUUUU | 0.372 ± 0.078 | 2.006 ± 0.0046 | 0.24 ± 0.13 | 2.02 ± 0.058
6 | GAGAGG | 0.109 ± 0.067 | 1.901 ± 0.012 | 0.336 ± 0.41 | 2.03 ± 0.026
7 | UGCUAA | 0.427 ± 0.062 | 1.97 ± 0.026 | 0.537 ± 0.11 | 2.018 ± 0.016
8 | CUCGCA | 0.235 ± 0.086 | 2.06 ± 0.013 | 0.416 ± 0.3 | 2.062 ± 0.011
9 | UAUGCU | -0.0167 ± 0.051 | 2.007 ± 0.0048 | 0.129 ± 0.27 | 2.04 ± 0.029
10 | AAGGUG | 0.462 ± 0.049 | 1.827 ± 0.011 | 0.597 ± 0.51 | 1.98 ± 0.04
11 | GUUGAA | 0.184 ± 0.013 | 1.95 ± 0.01 | 0.741 ± 0.0086 | 2.01 ± 0.035
12 | UGUGGA | -0.112 ± 0.058 | 1.816 ± 0.0017 | 0.123 ± 0.11 | 2 ± 0.027
13 | AGGCUA | 0.50616 ± 0.00017 | 2.041 ± 0.0053 | 0.407 ± 0.33 | 2.06 ± 0.037
14 | CAAGCA | 0.195 ± 0.065 | 2.018 ± 0.012 | 0.434 ± 0.14 | 2.03 ± 0.032
15 | UAAAGC | 0.217 ± 0.12 | 1.973 ± 0.017 | 0.319 ± 0.15 | 2 ± 0.06
16 | CUAGAU | 0.368 ± 0.079 | 1.957 ± 0.0032 | 0.387 ± 0.061 | 2 ± 0.028
17 | CAAACC | 0.546 ± 0.013 | 2.024 ± 0.0088 | 0.377 ± 0.2 | 2.02 ± 0.038
18 | UGCCGG | 0.22 ± 0.012 | 1.92 ± 0.011 | 0.707 ± 0.05 | 2.006 ± 0.018
19 | ACUUGG | 0.457 ± 0.11 | 1.898 ± 0.0091 | 0.649 ± 0.022 | 2 ± 0.049
20 | CGUCUA | -0.111 ± 0.073 | 2.0035 ± 0.0014 | 0.325 ± 0.29 | 2.033 ± 0.0082
21 | UUGGAG | -0.00192 ± 0.0051 | 1.71 ± 0.035 | 0.315 ± 0.1 | 1.99 ± 0.016
22 | AAGAGU | 0.413 ± 0.019 | 1.924 ± 0.0098 | 0.369 ± 0.0072 | 2.02 ± 0.047
23 | UGGCAG | 0.237 ± 0.02 | 1.76 ± 0.059 | 0.61 ± 0.17 | 1.955 ± 0.013
24 | UUCGAG | 0.119 ± 0.084 | 1.77 ± 0.033 | 0.699 ± 0.054 | 1.97 ± 0.055

Row | Variant | FACS-Seq fitted mean (log10) ((6R,S)-folinic acid [1]) | normalized RNA/DNA level without ligand (log10) ((6R,S)-folinic acid [2]) | FACS-Seq fitted mean (log10) ((6R,S)-folinic acid [3]) | normalized RNA/DNA level with ligand (log10) ((6R,S)-folinic acid [4])
25 | AAUACU | 0.3 ± 0.014 | 1.995 ± 0.017 | 0.384 ± 0.13 | 1.99 ± 0.026
26 | UAAUGA | 0.29 ± 0.014 | 1.872 ± 0.006 | 0.227 ± 0.042 | 2 ± 0.022
27 | AUGGGA | 0.263 ± 0.012 | 1.925 ± 0.015 | 0.269 ± 0.049 | 2.01 ± 0.03
28 | GAGUGC | 0.283 ± 0.14 | 1.944 ± 0.0043 | 0.338 ± 0.15 | 2.03 ± 0.039
29 | AUUUUG | 0.462 ± 0.029 | 1.927 ± 0.014 | 0.552 ± 0.039 | 1.99 ± 0.05
30 | UUCGGC | 0.0747 ± 0.019 | 2.043 ± 0.013 | -0.314 ± 0.0053 | 2.04 ± 0.054
31 | GCAACU | 0.431 ± 0.019 | 2.0623 ± 0.00038 | 0.667 ± 0.22 | 2.06 ± 0.029
32 | UAAGAG | 0.104 ± 0.05 | 1.667 ± 0.0094 | 0.3 ± 0.061 | 1.96 ± 0.038
33 | UUUAAG | 0.386 ± 0.13 | 1.769 ± 0.0025 | 0.698 ± 0.2 | 1.96 ± 0.046
34 | UUGGUG | 0.364 ± 0.16 | 1.75 ± 0.031 | 0.52 ± 0.26 | 2.01 ± 0.053
35 | UAGAAA | 0.332 ± 0.024 | 1.9239 ± 0.0006 | 0.254 ± 0.35 | 2.01 ± 0.023
36 | CUAAGU | 0.502 ± 0.033 | 2 ± 0.022 | 0.535 ± 0.079 | 1.995 ± 0.0037
37 | AUUUAU | 0.207 ± 0.088 | 2.011 ± 0.0041 | 0.186 ± 0.11 | 2.01 ± 0.035
38 | AUCUUA | 0.327 ± 0.012 | 2.042 ± 0.0064 | 0.337 ± 0.14 | 2.03 ± 0.043
39 | AUGGAC | 0.279 ± 0.031 | 1.955 ± 0.0055 | 0.259 ± 0.12 | 1.99 ± 0.022
40 | AUGAAA | 0.535 ± 0.016 | 1.944 ± 0.0099 | 0.656 ± 0.15 | 1.98 ± 0.033
41 | AAUAAA | -0.274 ± 0.037 | 1.971 ± 0.009 | -0.301 ± 0.1 | 2 ± 0.025
42 | ACGUAA | 0.69 ± 0.24 | 1.962 ± 0.0024 | 0.689 ± 0.3 | 2.006 ± 0.0065
43 | AAAAGC | 0.477 ± 0.09 | 1.999 ± 0.011 | 0.358 ± 0.1 | 2.03 ± 0.042
44 | GGACGA | 0.242 ± 0.039 | 2.022 ± 0.011 | 0.493 ± 0.027 | 2.042 ± 0.011
45 | GGACGU | 0.583 ± 0.13 | 1.955 ± 0.015 | 0.529 ± 0.32 | 1.95 ± 0.024
46 | AACAAC | -0.0136 ± 0.067 | 2.028 ± 0.006 | -0.491 ± 0.14 | 2.02 ± 0.024
47 | GAACGG | 0.0676 ± 0.01 | 1.94 ± 0.032 | 0.104 ± 0.12 | 2.018 ± 0.019
48 | CGUAUA | 0.0787 ± 0.09 | 1.93 ± 0.025 | 0.189 ± 0.17 | 1.983 ± 0.016

Row | Variant | FACS-Seq fitted mean (log10) ((6R,S)-folinic acid [1]) | normalized RNA/DNA level without ligand (log10) ((6R,S)-folinic acid [2]) | FACS-Seq fitted mean (log10) ((6R,S)-folinic acid [3]) | normalized RNA/DNA level with ligand (log10) ((6R,S)-folinic acid [4])
49 | UGAACU | 0.534 ± 0.077 | 1.988 ± 0.016 | 0.35 ± 0.14 | 2 ± 0.032
50 | CCACUU | 0.0563 ± 0.03 | 1.97 ± 0.021 | -0.0467 ± 0.18 | 1.972 ± 0.007
51 | ACGACA | -0.43 ± 0.011 | 2.015 ± 0.0095 | -0.351 ± 0.72 | 2.045 ± 0.019
52 | CUAUAG | 0.0808 ± 0.1 | 1.915 ± 0.017 | 0.35 ± 0.15 | 2 ± 0.029
53 | GAGUAC | 0.375 ± 0.091 | 1.952 ± 0.012 | 0.311 ± 0.16 | 2 ± 0.033
54 | AUAUGA | 0.209 ± 0.013 | 1.976 ± 0.004 | 0.342 ± 0.096 | 2.01 ± 0.034
55 | UUGGGG | 0.207 ± 0.029 | 1.824 ± 0.0037 | 0.521 ± 0.12 | 2.02 ± 0.036
56 | UGGAGG | 0.042 ± 0.039 | 1.641 ± 0.0022 | 0.458 ± 0.14 | 1.96 ± 0.031
57 | CGGGUA | -0.402 ± 0.16 | 1.939 ± 0.018 | -0.606 ± 0.59 | 1.97 ± 0.054
58 | AAGACA | 0.531 ± 0.012 | 1.985 ± 0.0083 | 0.754 ± 0.13 | 2.01 ± 0.023
59 | UACCCG | 0.166 ± 0.063 | 1.92 ± 0.03 | 0.279 ± 0.24 | 1.977 ± 0.0043
60 | GUCACC | 0.379 ± 0.15 | 2.07 ± 0.021 | 0.061 ± 0.042 | 2.063 ± 0.013
61 | GAGCAG | 0.523 ± 0.06 | 1.96 ± 0.004 | 0.688 ± 0.3 | 2.02 ± 0.058
62 | GUGUGU | 0.164 ± 0.1 | 1.942 ± 0.0063 | 0.271 ± 0.083 | 2.02 ± 0.036
63 | CCUAAU | 0.239 ± 0.0063 | 2.041 ± 0.011 | 0.0269 ± 0.022 | 2.07 ± 0.067
64 | GGUCCA | 0.532 ± 0.025 | 2.029 ± 0.0028 | 0.724 ± 0.15 | 2.01 ± 0.07
65 | ACUGAA | 0.265 ± 0.035 | 1.953 ± 0.0034 | 0.375 ± 0.18 | 1.981 ± 0.0063
66 | UAUGAG | 0.159 ± 0.026 | 1.609 ± 0.0041 | 0.709 ± 0.075 | 1.9 ± 0.045
67 | AAAGAU | 0.433 ± 0.025 | 1.9288 ± 0.0013 | 0.44 ± 0.027 | 2 ± 0.032
68 | AAAGAA | 0.282 ± 0.14 | 1.923 ± 0.011 | 0.569 ± 0.098 | 1.99 ± 0.037
69 | AAAGAC | 0.42 ± 0.029 | 1.98 ± 0.0069 | 0.38 ± 0.23 | 2.01 ± 0.028
70 | CAGUCG | 0.4924 ± 0.0036 | 2.022 ± 0.01 | 0.422 ± 0.19 | 2.037 ± 0.018
71 | CUGGGA | 0.446 ± 0.08 | 2.006 ± 0.014 | 0.348 ± 0.35 | 2.03 ± 0.047
72 | GCGAAA | 0.397 ± 0.13 | 1.977 ± 0.0092 | 0.39 ± 0.054 | 2.019 ± 0.017
